Source: US20240321457A1, “SYSTEMS FOR AND METHODS OF TREATMENT SELECTION” (THE REGENTS OF THE UNIVERSITY OF CALIFORNIA, priority 2020, published 2024)

Target: UBE2N (human) (UniProt P61088)
Assay: AP-MS, PPI score from compPASS and SAINTexpress, MDA-MB-231 cells

UBE2N (human), sequence (P61088 whole entry): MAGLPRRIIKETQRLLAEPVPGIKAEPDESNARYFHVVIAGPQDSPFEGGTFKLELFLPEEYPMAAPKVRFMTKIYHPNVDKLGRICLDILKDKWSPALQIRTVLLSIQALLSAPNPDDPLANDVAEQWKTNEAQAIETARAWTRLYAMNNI

## BRCA1 isoform lacking exon 11 (from UniProt P38398 1-721) (enzyme)
  PPI score: < 0.6
